In PMC4136698 one finds percent retained relative to Hck–1, percent of kinase retained by the immobilized SH3 domain ligand and percent of total kinase retained on beads data, which are given here for two substances.

What all share (assay): pull-down
Assay [1] deals with SH2 affinity peptide (EPQpYEEIPIYL).
Assay [2] has the same target. This is another data set of the same source.
Assay [3] addresses SNAP tag–polyproline peptide fusion (…).

Read-outs that look alike come from different tables or passages of the source.

As to Hck (residues 84–531) (enzyme), the percent retained relative to Hck–1 in assay [1] came out at 17%; in assay [2], 2%.

With Hck^Y527F (enzyme), in assay [3], the percent of kinase retained by the immobilized SH3 domain ligand was found to be 38% and the percent of total kinase retained on beads amounted to 2%.
